Target: T1, cyclophilin A (CypA), human (human, UniProt P62937 1-165)
T1 construct: human cyclophilin A (peptidyl-prolyl cis-trans isomerase A)
Assay: ITC; recombinant CypA or Nup358Cyp against recombinant CA^NTD, without cyclosporine; done as described in ref. 25
Details: both partners purified

B1: SIVmac capsid N-terminal domain (CA^NTD) (domain or fragment)
chain: not shown
modifications: No candidate fits. The accession (SIVmac Gag, isolate Mm142-83) is from memory because the isolate is not printed. Limits are CA residues 1-144, matching HIV-1 CA 1-146 (pdb 1M9D entity 2). Check …
  Kd: ~800 µM
